Data reported in patent US20060134122A1, “Peptides of syndecan-1 for inhibition of cancer” (priority 2004, published 2006).

B1: GST-mS1ED: recombinant mouse syndecan-1 ectodomain expressed as a fusion protein with GST (protein)
chain: QIVAVNVPPEDQDGSGDDSDNFSGSGTGALPDTLSRQTPSTWKDVWLLTATPTAPEPTSSNTETAFTSVLPAGEKPEEGEPVLHVEAEPGFTARDKEKEVTTRPRETVQLPITQRASTVRVTTAQAAVTSHPHGGMQPGLHETSAPTAPGQPDHQPPRVEGGGTSVIKEVVEDGTANQLPAGEGSGEQDFTFETSGENTAVAAVEPGLRNQPPVDEGATGASQSLLDRKEVLG
modifications: left off: a dimerising Fc or GST
notes: recombinant mouse syndecan-1 ectodomain expressed as a fusion protein with GST
B2: GST-mS4ED: recombinant GST fusion of mouse syndecan-4 ectodomain, specificity control (protein)
chain: ESIRETEVIDPQDLLEGRYFSGALPDDEDAGGSDDFELSGSGDLDDTEEPRPFPEVIEPLVPLDNHIPENAQPGIRVPSEPKELEENEVIPKRAPSDVGDDMSNKVSMSSTAQGSNIFERTE
modifications: left off: a dimerising Fc or GST
notes: recombinant GST fusion of mouse syndecan-4 ectodomain, specificity control

Assays:
[1] = system: MDA-MB-435 human mammary carcinoma cells; assay: Cell spreading assay, MDA-MB-435; assay type: cell-based; conditions: 2 h, GST-mS1ED 20 μM; for cell spreading on VN: 10 μg/mL VN, LM609 30 μg/mL
Protocol: FIGS. 2A-C—Sdc-1 adhesion-mediated cell spreading correlates with αvβ3 integrin. expression and activity. (FIG. 2A) FACS analysis of αvβ3 integrin expression (mAb LM609) in human mammary carcinoma cells against an IgG isotype control. (FIG. 2B) Depicted on split panels are phalloidin-stained MDA-MB-435 (upper half) and MCF-7 (lower half) cells 2 h after plating on wells coated with mAb B-B4 in plating medium alone or medium containing either 30 μg/mL mAb LM609, 1 μg/mL mAb 13 or 20 μM GST-mS1ED. Bar, 50 μm. (FIG. 2C) Untreated MDA-MB-435, MDA-MB-231 and MCF-7 cells (columns 1 and 4) and cells pretreated in suspension with 1 μg/mL mAb 13 (columns 2 and 3) were seeded on wells coated with either mAb B-B4 or COL I in plating medium alone (columns 1, 2 and 4) or medium containing 20 μM GST-mS1ED (column 3). Cells were incubated at 37° C. for 2 h, fixed, permeabilized and stained with WOW1 and an Alexa 488-conjugated secondary. Panel insets are corresponding phase contrast pictures. Bar, 20 μm.
FIG. 3—MDA-MB-435, but not MCF-7, human carcinoma cells display functional coupling of Sdc-1 and αvβ3 integrins on VN. Depicted are phalloidin-stained cells 2 h after plating on wells coated with 10 μg/mL VN (upper half) or FN (lower half) in plating medium alone or medium containing either 30 μg/mL mAb LM609, 25 μg/mL mAb 13, 20 μM GST-mS1ED or -mS4ED. Bar, 50 μm.
Sdc-1 adhesion-mediated cell spreading correlates with αvβ3 integrin expression and activity. To test whether the αvβ3 integrin's dependence on Sdc-1 extends to other carcinoma cells, the inventors screened a panel of human carcinoma cells with mAb LM609 using FACS analysis. […] To test the collaboration between Sdc-1 and αvβ3 integrin when cells are adherent via Sdc-1, MDA-MB-435 and MCF-7 cells were plated on wells coated with hS1-specific mAb B-B4. While αvβ3-positive MDA-MB-435 cells spread on this antibody substratum, their spreading is blocked (similar to results obtained in the MDA-MB-231; Beauvais and Rapraeger, 2003) by treatment with either mAb LM609 (added either before plating or 30 min after plating, when cells have already begun to spread) or GST-mS1ED protein (which is not recognized by mAb B-B4).
MDA-MB-435, but not MCF-7, human carcinoma cells display functional coupling of Sdc-1 and αvβ3 integrin on VN. To test whether activation of αvβ3 integrin activation on matrix is also functionally coupled to Sdc-1, MDA-MB-435 and MCF-7 cells were plated on either VN or FN (FIG. 3). MDA-MB-435 cells spread on VN and require αvβ3 integrins for this activity as spreading is blocked by mAb LM609. […]

[2] = system: B82L fibroblasts; assay: B82L cell attachment and spreading; assay type: cell-based, mouse; conditions: for cell attachment and spreading on VN: 5 μg/mL VN, S1ED 1-30 μM, GST and GST-mS4ED 30 μM
Source text: FIGS. 11A-F—Downregulation of mouse Sdc-1 expression by siRNA blocks αvβ5-dependent cell attachment and spreading on VN. FACS analysis for (FIG. 11A) mouse syndecan-1 (mAb 281.2), (FIG. 11B) αv integrin subunit (mAb H9.2B8), (FIG. 11C) mouse Syndecan-4 (mAb KY8.2), (FIG. 11D) human syndecan-1 (mAb B-B4) and (FIG. 11E) FcR^ecto-hS1 chimera (FITC-conjugated hIgG) expression against isotype IgG controls (red-fill) in vector^NEO (FIGS. 11A-C), human syndecan-1 (FIG. 11D) and FcR^ecto-hS1 (FIG. 11E) expressing B82L cells 48 h after transfection with either 600 nM control (Control) or mouse syndecan-1-specific siRNA (siRNA). (FIG. 11F) B82L^NEO empty vector-transfected control cells and B82L cells expressing human syndecan-1 or the FcR^ecto-hS1 chimera were transfected with control or mouse syndecan-1-specific siRNA and seeded on wells coated with either 5 μg/mL VN alone or a mixed substratum of VN plus 60 μg/mL of antibody directed against mouse syndecan-1 (281.2), human syndecan-1 (B-B4) or the FcR^ecto-hS1 chimera (hIgG). Cells were incubated at 37° C. for 2 h, fixed, and stained with rhodamine-conjugated phalloidin.
FIGS. 12A-B—B82L cell spreading on VN is blocked by recombinant Scd-1ED. (FIG. 12A) B82L fibroblasts were plated on 5 μg/mL VN in the absence of other treatment, or in the presence of 30 μM GST, 1-30 μM GST-mS1ED or 30 μM GST-mS4ED (inset), then fixed and stained with rhodamine-phalloidin for visualization. (FIG. 12B) Quantification of cell adhesion in triplicate samples (±S.E.) plated either with no additions, or concentrations of GST-mS1ED ranging from 0-30 μM. […]
The failure of NEO cells to engage the mixed substratum is indicative of the efficient blockade of mouse Sdc-1 expression by the siRNA. It is unlikely that the mouse Sdc-1-siRNA treatment has any non-specific cellular effects since spreading on VN is specifically rescued by the expression of full-length human Sdc-1 (hS1, FIG. 11F). Spreading of the B82L-hS1 cells is indistinguishable from parental cells. However, spreading on VN is not recovered in cells expressing the FcR^ecto-hS1 chimera—a construct in which the syndecan's ectodomain is replaced by the ectodomain of the human Fcγ receptor Ia (FcR^ecto-hS1)—regardless of whether the cells are plated on VN alone, or VN supplemented with 60 μg/mL of hIgG to engage the FcR^ecto-hS1 construct.
Recombinant Sdc-1 ectodomain competitively blocks αvβ5 integin activity. To test whether soluble Sdc-1 ectodomain will compete with the syndecan activation of the αvβ5 integrin, B82L cells were plated on 5 μg/mL VN in the presence of a recombinant GST fusion protein containing either the ectodomain of mouse Sdc-1 (GST-mS1ED) or human Sdc-1 (GST-hS1ED; data not shown).

Molecule | cell spreading on FN ([1]; 10 μg/mL FN, mAb 13 25 μg/mL) | cell spreading on VN [1] | cell spreading on mAb B-B4 ([1]; LM609 30 μg/mL (before or 30 min after plating)) | cell attachment and spreading on VN [2] | lowest concentration tested at which competition occurs ([2]; cells plated on 5 μg/mL VN)
B1 | retain their ability to spread | fail to spread | blocked | increasing blockade | 1 µM
B2 | – | no effect | – | without effect | –
